Measured values published in publication doi:10.1101/2024.03.26.586665 (bioRxiv, 2024).
Each block holds one molecule with its values, some of them ahead of it.

Assays:
[1] = molecular target: human CaMKIIα W403L hub (human) (UniProt Q9UQM7); experiment: mass photometry
mass photometry = molecular target: the molecule itself; experiment: mass photometry
SAXS = molecular target: the molecule itself; experiment: SAXS

stoichiometry N [1]: 12
Molecule: human CaMKIIα W403L hub (from UniProt Q9UQM7 345-475) (domain or fragment)

B1: human CaMKIIα WT hub (calcium/calmodulin-dependent protein kinase II subtype alpha, hub domain) (domain or fragment, UniProt Q9UQM7 345-475, looked up)
chain: VRKQEIIKVTEQLIEAISNGDFESYTKMCDPGMTAFEPEALGNLVEGLDFHRFYFENLWSRNSKPVHTTILNPHIHLMGDESACIAYIRITQYLDAGGIPRTAQSEETRVWHRRDGKWQIVHFHRSGAPSV
stoichiometry N (mass photometry): 24
stoichiometry N (SAXS): 12
